Laboratory results: PMC12262686 (bioRxiv, 2025)
Changes are numbered by the printed parent chain. Names and notes keep the numbering of the source. Values joined by “and” are separate entries in the source; they are usually repeats but may differ in a detail not shown here. Equal values may be shown once.

T1: Speckle-type POZ protein (SPOP), full-length, wild type (human), O43791
T1 chain: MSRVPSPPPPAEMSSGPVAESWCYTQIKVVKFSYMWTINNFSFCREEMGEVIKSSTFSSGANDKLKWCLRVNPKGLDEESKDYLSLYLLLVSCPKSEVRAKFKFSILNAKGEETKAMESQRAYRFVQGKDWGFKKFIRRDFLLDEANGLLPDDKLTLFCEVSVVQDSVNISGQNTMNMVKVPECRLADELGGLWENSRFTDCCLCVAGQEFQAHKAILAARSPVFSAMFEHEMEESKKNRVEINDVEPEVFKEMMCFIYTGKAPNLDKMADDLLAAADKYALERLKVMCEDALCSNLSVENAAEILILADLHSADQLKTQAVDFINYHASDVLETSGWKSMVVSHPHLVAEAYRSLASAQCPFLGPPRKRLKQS

B1: SPOP R221C (natural protein)
chain: T1 chain with R221C
B2: SPOP R70L (natural protein)
chain: T1 chain with R70L
B3: SPOP E47Q (natural protein)
chain: T1 chain with E47Q
B4: SPOP G128D, full-length (natural protein)
chain: T1 chain with G128D
B5: SPOP G128S (natural protein)
chain: T1 chain with G128S
B6: SPOP S96R, full-length (natural protein)
chain: T1 chain with S96R
B7: SPOP K129E (natural protein)
chain: T1 chain with K129E
B8: SPOP K134N, full-length (natural protein)
chain: T1 chain with K134N
B9: SPOP M48I (natural protein)
chain: T1 chain with M48I
B10: Speckle-type POZ protein (SPOP), full-length, wild type, O43791 1-374 (natural protein)
chain: T1 chain

Molecular target: the molecule itself
Test: negative-stain TEM
Conditions: not given

Row | Molecule | binding result
1 | B1 | binds
2 | B2 | binds
3 | B3 | binds
4 | B4 | binds
5 | B5 | binds
6 | B6 | binds
7 | B7 | binds
8 | B8 | binds
9 | B9 | binds

molecular target: BRD3 peptide containing the main SPOP-binding motif of BRD3; test: fluorescence polarisation; conditions: not given

Row | Molecule | fold weaker binding than full-length WT [fold] | fold weaker binding than the WT MATH domain [fold]
10 | SPOP K134N, full-length (from UniProt O43791 1-374) (natural protein) | 11 | –
11 | SPOP MATH domain K134N (from UniProt O43791 31-161) (domain or fragment) | – | 4

Molecular target: T1, Speckle-type POZ protein (SPOP), …
Test: cryo-EM structure
Conditions: remark: other sources report otherwise

Row | Molecule | stoichiometry N
12 | B10 | 48 monomers and 56 monomers
